Results on 4 molecules are retold here after patent CN117138036A (NANJING RONGJIEKANG BIOTECHNOLOGY CO LTD, dated 2023).

One assay concerns the target IL-4Rα (UniProt P24394 26-232, limits assumed). As to the kind of experiment: cell-based or functional assay.
The target of another assay is IL-5 (human, UniProt P05113 20-134). Description: cell-based or functional assay.
Sequence of IL-5 (P05113 20-134 limits assumed): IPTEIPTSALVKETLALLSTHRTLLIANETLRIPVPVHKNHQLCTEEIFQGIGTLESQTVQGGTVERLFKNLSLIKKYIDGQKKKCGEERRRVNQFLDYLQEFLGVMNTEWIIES

B1: dupilumab (antibody, V domains shown)
VH: EVQLVESGGGLEQPGGSLRLSCAGSGFTFRDYAMTWVRQAPGKGLEWVSSISGSGGNTYYADSVKGRFTISRDNSKNTLYLQMNSLRAEDTAVYYCAKDRLSITIRPRYYGLDVWGQGTTVTVSS
VL: DIVMTQSPLSLPVTPGEPASISCRSSQSLLYSIGYNYLDWYLQKSGQSPQLLIYLGSNRASGVPDRFSGSGSGTDFTLKISRVEAEDVGFYYCMQALQTPYTFGQGTKLEIKR
For the molecule B1, in the assay with IL-4Rα, the “EC50, 中和IL-4诱导的TF-1细胞增殖” value came out at 130 pM and the “EC50, 中和IL-13诱导的TF-1细胞增殖” value was determined as 178 pM.

B2: 4E9V0 (VHH)
VHH: QVQLVESGGGSVQAGGSLRLSCAASGDFYCMAWFRQAPGKEREGVATIRSGGRSTYYADSVKGRFTISKDNAKDTLYLQMNSLKPEDTAMYYCAVGVDGNCRNYWGQGTQVTVSS
As for B2, in the assay with IL-4Rα, the “EC50, 中和IL-4诱导的TF-1细胞增殖” value came to 281 pM and the “EC50, 中和IL-13诱导的TF-1细胞增殖” value stood at 229 pM.

B3: 2B3 (VHH)
VHH: QVQLVESGGGSVQAGGSLRLSCAASGNTFSFSTYCMGWFRQSPGKEREGSLATIYDGSTAYAGSVKGRFTISVDNAKNILYLQMNNLKPEDTAMYYCAAAKYCMFWSDPSYWGQGTQVTVSS
For B3, in the assay with IL-5, the “EC50, 中和IL-5诱导的TF-1细胞增殖” value is 336 pM.

B4: reslizumab (antibody, V domains shown)
VH: EVQLVESGGGLVQPGGSLRLSCAVSGLSLTSNSVNWIRQAPGKGLEWVGLIWSNGDTDYNSAIKSRFTISRDTSKSTVYLQMNSLRAEDTAVYYCAREYYGYFDYWGQGTLVTVSS
VL: DIQMTQSPSSLSASVGDRVTITCLASEGISSYLAWYQQKPGKAPKLLIYGANSLQTGVPSRFSGSGSATDYTLTISSLQPEDFATYYCQQSYKFPNTFGQGTKVEVK
On to B4, for which the “EC50, 中和IL-5诱导的TF-1细胞增殖” value with IL-5 was 122 pM.
